The results in this text go back to patent US20210246204A1 (Alector, published 2021).

Test [1] addresses T1, human Siglec-7 on primary human monocyte-derived dendritic cells (human, UniProt Q9Y286 19-467). Nature of the test: cell-based or functional assay.
The target in test [2] is T1, human Siglec-7 on primary human …. Nature of the test: flow cytometry, primary human dendritic cells. The procedure: The 12 humanized antibodies of S7AB were evaluated for binding to primary dendritic cells by flow cytometry. Monocytes were isolated from blood from healthy human donors using the RosetteSep™ monocyte isolation antibody cocktail (StemCell Technologies). The isolated monocytes were differentiated into dendritic cells with 100 ng/mL GM-CSF and 100 ng/mL IL-4 (Peprotech). Dendritic cells were incubated with dilutions of the anti-Siglec-7 antibodies for 30 minutes on ice in the dark, followed by a 30-minute incubation with a fluorescently-conjugated anti-human IgG secondary antibody. Cells were washed twice in FACS buffer (PBS+2% FBS, 2 mM EDTA), and flow cytometry was performed on a BD FACS Canto. Data were analyzed using FlowJo software (Ashland, Oreg.).

For test [3], the target named is T2, histidine-tagged human Siglec-7 (NovoProtein) (human, UniProt Q9Y286 19-353).
T2 construct: Bought protein; also called recombinant human Siglec-7; recombinant Siglec-7; not shown: histidine tag
Nature of the test: BLI (ForteBio), antibody captured; Table 2 experiment; antibody captured on anti-IgG Fc Biosensors, 0-100 nM His-tagged Siglec-7. The method, then: (§1) In this assay, the humanized antibodies were compared directly to S7AB. Briefly, the antibodies were captured on anti-human or anti-mouse IgG Fc Biosensors (Pall ForteBio). Varying concentrations (0-100 nM) of histidine-tagged human Siglec-7 (NovoProtein) were then bound to the captured anti-Siglec-7 surface (200 s association time, 900 s dissociation time). Multi-concentration kinetic analysis was performed using a 1:1 interaction model to extract association and dissociation rate constants (kₐ and kd, respectively) for each antibody. Apparent affinity constants (KD) were calculated from the ratio kd/kₐ.
On the technique in general: Biolayer interferometry detects binding as a change in optical thickness at a sensor tip.

In test [4] the target is T1, human Siglec-7 on primary human …. The test can be described thus: cell-based or functional assay. This is another data set of the same source.
Test [5] deals with T2, histidine-tagged human Siglec-7 …. The test can be described thus: BLI, antibody captured. Put shortly:
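Antibodies captured on anti-human or anti-mouse IgG Fc biosensors; His-tagged human Siglec-7 flowed at 0–100 nM (200 s association, 900 s dissociation). ka and kd from 1:1 multi-concentration fit; apparent KD = kd/ka.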

For test [6] the target is unchanged. The test can be described thus: BLI (ForteBio), antibody captured. The method, then:
as §1

Test [7] concerns the target T1, human Siglec-7 on primary human …. Nature of the test: cell-based or functional assay. This is another data set of the same source.

Like-named read-outs stand apart in the source and are kept apart here.

By EC50 is commonly meant the concentration needed to bring the measured effect to its halfway point. A high value points to weaker potency. As a reminder, the Kd is the constant that tells how readily two partners part at equilibrium. A high value points to a looser complex. Broadly, the koff is the rate constant with which the complex falls apart. A low value points to a long-lived complex. A word on the kon: it is the second-order rate constant of association.

T2 sequence (Q9Y286 19-353 limits assumed): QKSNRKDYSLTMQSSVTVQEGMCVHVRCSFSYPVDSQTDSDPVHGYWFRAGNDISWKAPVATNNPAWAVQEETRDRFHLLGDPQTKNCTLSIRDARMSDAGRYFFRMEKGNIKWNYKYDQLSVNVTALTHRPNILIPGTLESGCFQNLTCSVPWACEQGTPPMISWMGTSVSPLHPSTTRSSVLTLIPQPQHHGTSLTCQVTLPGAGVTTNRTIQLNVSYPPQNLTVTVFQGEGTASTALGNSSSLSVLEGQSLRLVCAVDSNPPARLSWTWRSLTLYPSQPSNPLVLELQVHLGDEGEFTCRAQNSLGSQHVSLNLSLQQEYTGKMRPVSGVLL
T1 sequence (Q9Y286 19-467): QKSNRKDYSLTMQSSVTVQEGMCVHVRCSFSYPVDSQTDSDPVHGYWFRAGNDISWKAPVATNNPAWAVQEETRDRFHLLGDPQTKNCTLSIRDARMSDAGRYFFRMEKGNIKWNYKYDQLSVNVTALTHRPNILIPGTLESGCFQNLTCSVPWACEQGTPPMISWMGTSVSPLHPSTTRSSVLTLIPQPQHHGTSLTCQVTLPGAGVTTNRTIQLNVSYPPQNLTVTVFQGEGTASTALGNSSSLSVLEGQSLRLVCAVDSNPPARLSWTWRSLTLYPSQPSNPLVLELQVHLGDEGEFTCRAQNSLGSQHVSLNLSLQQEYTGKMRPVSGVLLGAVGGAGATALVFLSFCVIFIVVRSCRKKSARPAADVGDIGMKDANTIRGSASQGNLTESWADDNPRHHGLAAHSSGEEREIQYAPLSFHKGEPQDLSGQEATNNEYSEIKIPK

B1: S7AB-H8 (antibody, V domains shown)
VH: QVQLVQSGAEVKKPGASVKISCKASGYAFTNCWMNWVRQAPGQGLEWIGRIFPGNGHTNYAQKFQGRATLTEDTSTSTAYMELSSLRSEDTAVYYCARDYSDYYFDYWGQGTLVTVSS
VL: DIQMTQSPSSLSASVGDRVTITCRASQDINTYLNWYQQKPGKAPKLLIYYTSRLHSGVPSRFSGSGSGTDYTLTISSLQPEDFATYYCQQGNTLPWTFGQGTKLEIK
notes: also called parental humanized antibody
B1: the “Receptor downregulation, (EC50) (pM)” value in test [1] came out at 395 pM. The concentration giving a half-maximal response (EC50) in test [2] was determined as 1.5 nM. The same molecule showed a dissociation constant Kd in test [3] of 0.86 nM. For the same molecule, in test [4], the “Fold increase in potency compared to Chimeric Ab” value was 3 fold; the “Maximal downregulation (% Siglec-7 remaining)” value was determined as 18.3%; the “Receptor downregulation, (EC50) (pM)” value came to 340 pM. In test [5], binding was characterised by a dissociation constant (Kd) of 1.05 nM, the koff amounted to 0.000174 s⁻¹ and the on-rate (kon) is 166000 M⁻¹ s⁻¹. In test [6], the koff is 0.000125 s⁻¹ and the kon is 145000 M⁻¹ s⁻¹.

B2: S7AB-H8.44 huIgG1 LALAPS (antibody, V domains shown)
VH: QVQLVQSGAEVKKPGASVKVSCKASGYAFTAAWMNWVRQAPGQGLEWIGRIFPGLGHTNYAQKFQGRATLTEDTSTSTAYMELSSLRSEDTAVYYCARDYSDYYFDYWGQGTLVTVSS
VL: DIQMTQSPSSLSASVGDRVTITCRGSQDINTYLNWYQQKPGKAPKLLIYYTSRLHSGVPSRFSGSGSGTDYTLTISSLQPEDFATYYCQQGNILPWTFGQGTKLEIK
Turning to B2, in test [7], the “Maximal downregulation (% Siglec-7 remaining)” value stood at 2.8% and the “Receptor downregulation, (pM, EC50)” value is 67.3 pM.

B3: S7AB-H8.44 huIgG1 (antibody, V domains shown)
VH: QVQLVQSGAEVKKPGASVKVSCKASGYAFTAAWMNWVRQAPGQGLEWIGRIFPGLGHTNYAQKFQGRATLTEDTSTSTAYMELSSLRSEDTAVYYCARDYSDYYFDYWGQGTLVTVSS
VL: DIQMTQSPSSLSASVGDRVTITCRGSQDINTYLNWYQQKPGKAPKLLIYYTSRLHSGVPSRFSGSGSGTDYTLTISSLQPEDFATYYCQQGNILPWTFGQGTKLEIK
As to B3, in test [7], the “Maximal downregulation (% Siglec-7 remaining)” value was determined as 1% and the “Receptor downregulation, (pM, EC50)” value was 33.6 pM.

B4: S7AB-H8.44 huIgG1 N297A (antibody, V domains shown)
VH: QVQLVQSGAEVKKPGASVKVSCKASGYAFTAAWMNWVRQAPGQGLEWIGRIFPGLGHTNYAQKFQGRATLTEDTSTSTAYMELSSLRSEDTAVYYCARDYSDYYFDYWGQGTLVTVSS
VL: DIQMTQSPSSLSASVGDRVTITCRGSQDINTYLNWYQQKPGKAPKLLIYYTSRLHSGVPSRFSGSGSGTDYTLTISSLQPEDFATYYCQQGNILPWTFGQGTKLEIK
With B4, in test [7], the “Maximal downregulation (% Siglec-7 remaining)” value stood at 2.9% and the “Receptor downregulation, (pM, EC50)” value is 68.6 pM.

B5: S7AB-H8.44 huIgG2 (antibody, V domains shown)
VH: QVQLVQSGAEVKKPGASVKVSCKASGYAFTAAWMNWVRQAPGQGLEWIGRIFPGLGHTNYAQKFQGRATLTEDTSTSTAYMELSSLRSEDTAVYYCARDYSDYYFDYWGQGTLVTVSS
VL: DIQMTQSPSSLSASVGDRVTITCRGSQDINTYLNWYQQKPGKAPKLLIYYTSRLHSGVPSRFSGSGSGTDYTLTISSLQPEDFATYYCQQGNILPWTFGQGTKLEIK
Take B5: in test [7], the “Maximal downregulation (% Siglec-7 remaining)” value turned out to be 2.8% and the “Receptor downregulation, (pM, EC50)” value turned out to be 43.8 pM.

B6: S7AB-H8.44 huIgG1 SELF (antibody, V domains shown)
VH: QVQLVQSGAEVKKPGASVKVSCKASGYAFTAAWMNWVRQAPGQGLEWIGRIFPGLGHTNYAQKFQGRATLTEDTSTSTAYMELSSLRSEDTAVYYCARDYSDYYFDYWGQGTLVTVSS
VL: DIQMTQSPSSLSASVGDRVTITCRGSQDINTYLNWYQQKPGKAPKLLIYYTSRLHSGVPSRFSGSGSGTDYTLTISSLQPEDFATYYCQQGNILPWTFGQGTKLEIK
On to B6, for which, in test [7], the “Maximal downregulation (% Siglec-7 remaining)” value was below 0.1% and the “Receptor downregulation, (pM, EC50)” value was found to be 9.1 pM.

B7: S7AB-H7 (antibody, V domains shown)
VH: QVQLVQSGAEVKKPGASVKISCKASGYAFTNCWMNWVRQAPGQGLEWIGRIFPGNGHTNYAQKFQGRATLTEDTSTSTAYMELSSLRSEDTAVYYCARDYSDYYFDYWGQGTLVTVSS
VL: DIQMTQSPSSLSASVGDRVTITCRASQDINTYLNWYQQKPGKAPKLLIYYTSRLHSGVPSRFSGSGSGTDFTLTISSLQPEDFATYYCQQGNTLPWTFGQGTKLEIK
For the molecule B7, the EC50 in test [2] amounted to 3.3 nM.

B8: S7AB-H10 (antibody, V domains shown)
VH: QVQLVQSGAEVKKPGASVKISCKASGYAFTNCWMNWVRQAPGQGLEWIGRIFPGNGHTNYAQKFQGRATLTEDTSTSTAYMELSSLRSEDTAVYYCARDYSDYYFDYWGQGTLLTVSS
VL: DIQMTQSPSSLSASVGDRVTITCRASQDINTYLNWYQQKPGKAPKLLIYYTSRLHSGVPSRFSGSGSGTDFTLTISSLQPEDFATYYCQQGNTLPWTFGQGTKLEIK
On to B8, for which it took 6.3 nM to reach a half-maximal effect in test [2] (EC50).

B9: S7AB-H9 (antibody, V domains shown)
VH: QVQLVQSGAEVKKPGASVKISCKASGYAFTNCWMNWVRQAPGQGLEWIGRIFPGNGHTNYAQKFQGRATLTEDTSTSTAYMELSSLRSEDTAVYYCARDYSDYYFDYWGQGTLVTVSS
VL: DVQMTQSPSSLSASVGDRVTITCRASQDINTYLNWYQQKPGKAPKLLIYYTSRLHSGVPSRFSGSGSGTDYTLTISSLQPEDFATYYCQQGNTLPWTFGQGTKLEIK
Regarding B9, in test [1], the “Receptor downregulation, (EC50) (pM)” value stood at 432 pM. The concentration giving a half-maximal response (EC50) in test [2] is 1.5 nM. Also, in test [6], binding was characterised by a dissociation constant (Kd) of 0.74 nM, the koff came to 0.000112 s⁻¹ and the kon came out at 150000 M⁻¹ s⁻¹.

B10: S7AB-H12 (antibody, V domains shown)
VH: QVQLVQSGAEVKKPGASVKISCKASGYAFTNCWMNWVRQAPGQGLEWIGRIFPGNGHTNYAQKFQGRATLTEDTSTSTAYMELSSLRSEDTAVYYCARDYSDYYFDYWGQGTLLTVSS
VL: DVQMTQSPSSLSASVGDRVTITCRASQDINTYLNWYQQKPGKAPKLLIYYTSRLHSGVPSRFSGSGSGTDYTLTISSLQPEDFATYYCQQGNTLPWTFGQGTKLEIK
For B10, in test [1], the “Receptor downregulation, (EC50) (pM)” value worked out at 447 pM. The midpoint of the response in test [2], the EC50, lay at 5.6 nM. In test [6], this molecule gave a Kd of 1.01 nM, a koff of 0.000152 s⁻¹ and a kon of 150000 M⁻¹ s⁻¹.

B11: S7AB-H6 (antibody, V domains shown)
VH: QVQLVQSGAEVKKPGASVKVSCKASGYAFTNCWMNWVRQAPGQGLEWIGRIFPGNGHTNYAQKFQGRVTMTEDTSTSTVYMELSSLRSEDTAVYYCARDYSDYYFDYWGQGTLVTVSS
VL: DVQMTQSPSSLSASVGDRVTITCRASQDINTYLNWYQQKPGKAPKLLIYYTSRLHSGVPSRFSGSGSGTDYTLTISSLQPEDFATYYCQQGNTLPWTFGQGTKLEIK
Molecule B11 displayed a concentration giving a half-maximal response (EC50) in test [2] of 1.6 nM. That is a single-digit nanomolar value.

B12: S7AB-H11 (antibody, V domains shown)
VH: QVQLVQSGAEVKKPGASVKISCKASGYAFTNCWMNWVRQAPGQGLEWIGRIFPGNGHTNYAQKFQGRATLTEDTSTSTAYMELSSLRSEDTAVYYCARDYSDYYFDYWGQGTLLTVSS
VL: DIQMTQSPSSLSASVGDRVTITCRASQDINTYLNWYQQKPGKAPKLLIYYTSRLHSGVPSRFSGSGSGTDYTLTISSLQPEDFATYYCQQGNTLPWTFGQGTKLEIK
Regarding B12, in test [1], the “Receptor downregulation, (EC50) (pM)” value worked out at 411 pM. In test [2], this molecule registered a half-maximal effective concentration (EC50) of 1.2 nM. In test [6], this molecule returned a dissociation constant Kd of 1.07 nM, a koff of 0.000172 s⁻¹ and a kon of 160000 M⁻¹ s⁻¹.
